# According to publication PMC12416549 (2024):
# Substitutions are numbered along the chain they refer to. In names and notes the source's numbering stands.
# T1: TNFR1 (Homo sapiens, UniProt P19438)
# T1 chain: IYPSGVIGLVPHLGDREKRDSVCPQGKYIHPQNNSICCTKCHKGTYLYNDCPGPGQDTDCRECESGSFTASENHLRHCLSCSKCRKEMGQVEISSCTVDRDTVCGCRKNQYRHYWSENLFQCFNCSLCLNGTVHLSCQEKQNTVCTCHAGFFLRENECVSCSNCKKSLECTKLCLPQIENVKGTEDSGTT
# B1: R89M (designed binder)
# chain: MTLQELLREEALRRAEAEAFRYALELLAEKFPEQKEYLLDLAEEIESQIRSLSGVDVEDVRKFLDKEWAWVKELLAEHPAELAEVEAAMAARLAELRAEVEAKVAA
# B2: E84L (designed binder)
# chain: B1 chain with E84L, M89R
# B3: Q34F (designed binder)
# chain: B1 chain with Q34F, M89R
# B4: E18T (designed binder)
# chain: B1 chain with E18T, M89R
# B5: E29K (designed binder)
# chain: B1 chain with E29K, M89R
# B6: F63C (designed binder)
# chain: B1 chain with F63C, M89R
# B7: E58I (designed binder)
# chain: B1 chain with E58I, M89R
# B8: A91G (designed binder)
# chain: B1 chain with M89R, A91G
# B9: A94R (designed binder)
# chain: B1 chain with M89R, A94R
# B10: L7P (designed binder)
# chain: B1 chain with L7P, M89R
# B11: A19T (designed binder)
# chain: B1 chain with A19T, M89R
# B12: A80R (designed binder)
# chain: B1 chain with A80R, M89R
# B13: Y22N (designed binder)
# chain: B1 chain with Y22N, M89R
# B14: E58N (designed binder)
# chain: B1 chain with E58N, M89R
# B15: A76C (designed binder)
# chain: B1 chain with A76C, M89R
# B16: E86N (designed binder)
# chain: B1 chain with E86N, M89R
# B17: L12H (designed binder)
# chain: B1 chain with L12H, M89R
# B18: S51Q (designed binder)
# chain: B1 chain with S51Q, M89R
# B19: E44I (designed binder)
# chain: B1 chain with E44I, M89R
# B20: V55A (designed binder)
# chain: B1 chain with V55A, M89R
# B21: E46Q (designed binder)
# chain: B1 chain with E46Q, M89R
# B22: E10T (designed binder)
# chain: B1 chain with E10T, M89R
# B23: E44M (designed binder)
# chain: B1 chain with E44M, M89R
# B24: G54M (designed binder)
# chain: B1 chain with G54M, M89R
# B25: E86I (designed binder)
# chain: B1 chain with E86I, M89R
# B26: F31M (designed binder)
# chain: B1 chain with F31M, M89R
# B27: T2W (designed binder)
# chain: B1 chain with T2W, M89R
# B28: Y22K (designed binder)
# chain: B1 chain with Y22K, M89R
# B29: D59I (designed binder)
# chain: B1 chain with D59I, M89R
# B30: A106T (designed binder)
# chain: B1 chain with M89R, A106T
# B31: I49D (designed binder)
# chain: B1 chain with I49D, M89R
# B32: E46N (designed binder)
# chain: B1 chain with E46N, M89R
# B33: R14G (designed binder)
# chain: B1 chain with R14G, M89R
# B34: A83Y (designed binder)
# chain: B1 chain with A83Y, M89R
# B35: F31P (designed binder)
# chain: B1 chain with F31P, M89R
# B36: A88F (designed binder)
# chain: B1 chain with A88F, M89R
# B37: Y22C (designed binder)
# chain: B1 chain with Y22C, M89R
# B38: K66F (designed binder)
# chain: B1 chain with K66F, M89R
# B39: R13G (designed binder)
# chain: B1 chain with R13G, M89R
# B40: A11D (designed binder)
# chain: B1 chain with A11D, M89R
# B41: A28D (designed binder)
# chain: B1 chain with A28D, M89R
# B42: R14H (designed binder)
# chain: B1 chain with R14H, M89R
# B43: L82N (designed binder)
# chain: B1 chain with L82N, M89R
# B44: S53Q (designed binder)
# chain: B1 chain with S53Q, M89R
# B45: I45G (designed binder)
# chain: B1 chain with I45G, M89R
# B46: A19V (designed binder)
# chain: B1 chain with A19V, M89R
# B47: E101P (designed binder)
# chain: B1 chain with M89R, E101P
# B48: A69R (designed binder)
# chain: B1 chain with A69R, M89R
# B49: E25Q (designed binder)
# chain: B1 chain with E25Q, M89R
# B50: D56F (designed binder)
# chain: B1 chain with D56F, M89R
# B51: E16T (designed binder)
# chain: B1 chain with E16T, M89R
# B52: K66N (designed binder)
# chain: B1 chain with K66N, M89R
# B53: L6T (designed binder)
# chain: B1 chain with L6T, M89R
# B54: E9I (designed binder)
# chain: B1 chain with E9I, M89R
# B55: A76E (designed binder)
# chain: B1 chain with A76E, M89R
# B56: R89Y (designed binder)
# chain: B1 chain with M89Y
# B57: R92V (designed binder)
# chain: B1 chain with M89R, R92V
# B58: V100E (designed binder)
# chain: B1 chain with M89R, V100E
# B59: T2P (designed binder)
# chain: B1 chain with T2P, M89R
# Biological target: T1, TNFR1
# Assay: yeast display SC50
row,apparent Kd (screen) [nM],Binder
1,0.869,B1
2,0.49,B2
3,0.79,B3
4,0.593,B4
5,0.49,B5
6,6.43,B6
7,0.593,B7
8,0.49,B8
9,0.869,B9
10,0.79,B10
11,0.718,B11
12,0.593,B12
13,0.593,B13
14,0.49,B14
15,0.539,B15
16,1.05,B16
17,0.956,B17
18,1.27,B18
19,0.869,B19
20,1.16,B20

row,apparent Kd (screen) [nM],Binder
1,0.49,B21
2,5.31,B22
3,1.69,B23
4,12.5,B24
5,0.718,B25
6,0.539,B26
7,1.16,B27
8,0.49,B28
9,0.653,B29
10,1.05,B30
11,12.5,B31
12,0.593,B32
13,0.539,B33
14,0.718,B34
15,7.78,B35
16,0.718,B36
17,0.446,B37
18,0.653,B38
19,0.252,B39
20,0.593,B40

row,apparent Kd (screen) [nM],Binder
1,18.3,B41
2,0.49,B42
3,1.69,B43
4,0.653,B44
5,8.56,B45
6,0.446,B46
7,0.446,B47
8,0.539,B48
9,0.539,B49
10,2.73,B50
11,0.539,B51
12,0.653,B52
13,10.4,B53
14,0.79,B54
15,0.593,B55
16,0.539,B56
17,0.593,B57
18,0.539,B58
19,0.718,B59
